Data on one molecule can be found in article PMC8207774, “NtbHLH1, a JAF13-like bHLH, interacts with NtMYB6 to enhance proanthocyanidin accumulation in Chinese Narcissus” (BMC Plant Biology, 2021).

In the experiment the target is T1, NtbHLH1 (Chinese narcissus (Narcissus tazetta L. …, UniProt A0A517FM44 1-631)).
T1 sequence (looked up): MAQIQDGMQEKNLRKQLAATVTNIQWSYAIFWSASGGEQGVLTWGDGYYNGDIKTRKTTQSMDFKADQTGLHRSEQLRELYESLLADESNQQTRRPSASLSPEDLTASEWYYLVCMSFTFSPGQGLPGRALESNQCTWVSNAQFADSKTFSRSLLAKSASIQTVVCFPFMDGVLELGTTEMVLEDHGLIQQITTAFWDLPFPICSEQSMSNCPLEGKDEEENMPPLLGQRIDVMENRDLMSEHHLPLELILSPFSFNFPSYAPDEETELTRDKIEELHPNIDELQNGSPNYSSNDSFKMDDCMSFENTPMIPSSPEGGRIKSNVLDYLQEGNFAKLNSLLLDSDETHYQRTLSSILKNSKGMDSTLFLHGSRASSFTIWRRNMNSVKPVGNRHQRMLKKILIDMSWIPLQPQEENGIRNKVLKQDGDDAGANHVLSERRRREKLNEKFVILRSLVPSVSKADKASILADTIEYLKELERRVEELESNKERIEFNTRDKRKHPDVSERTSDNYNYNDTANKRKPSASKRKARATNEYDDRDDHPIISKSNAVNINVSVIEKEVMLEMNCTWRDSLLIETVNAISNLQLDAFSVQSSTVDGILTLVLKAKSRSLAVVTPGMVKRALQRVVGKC
The experiment is described as follows: cell-based or functional assay.

B1: NtMYB6 (natural protein, UniProt A0A1U9X216 1-249, looked up)
chain: MGRAPCCSKVGLHRGPWTAREDALLTNYIQCHGEGNWRSLPKNAGLLRCGKSCRLRWMNYLRPDIKRGNIGPEEEDLIIRLHSLLGNRWSIIAGRLPGRTDNEIKNYWNSHLSKKLKKQGIQVRGNLSSKQSKSSKMNNNDNNNNLEKRKNIKETPKIKIHAPKPTRFTRTISQSSSSCQANNVENVTSEDERCDIPWTNAESQDDIFAPGSWNYELFDIDRVYQEYSQLLNGEDDQFPMASFTESVFA
B1: the “NtDFR promoter activity, dual luciferase assay in N. benthamiana leaves, co-infiltration of NtbHLH1 and NtMYB6 compared to NtMYB6 alone” value was approximately 8 fold; the “NtDFR promoter activity, dual luciferase assay in N. benthamiana leaves, co-infiltration of NtbHLH1 and NtMYB6 compared to the control” value is approximately 14 fold.
